Laboratory results from patent US20160047810A1 (INSTITUT PASTEUR, published 2016).

Columns and labels:
[1] = target: T1, FtsZ (purified, from pET11a-ftsZ), P0A9A6
T1 chain: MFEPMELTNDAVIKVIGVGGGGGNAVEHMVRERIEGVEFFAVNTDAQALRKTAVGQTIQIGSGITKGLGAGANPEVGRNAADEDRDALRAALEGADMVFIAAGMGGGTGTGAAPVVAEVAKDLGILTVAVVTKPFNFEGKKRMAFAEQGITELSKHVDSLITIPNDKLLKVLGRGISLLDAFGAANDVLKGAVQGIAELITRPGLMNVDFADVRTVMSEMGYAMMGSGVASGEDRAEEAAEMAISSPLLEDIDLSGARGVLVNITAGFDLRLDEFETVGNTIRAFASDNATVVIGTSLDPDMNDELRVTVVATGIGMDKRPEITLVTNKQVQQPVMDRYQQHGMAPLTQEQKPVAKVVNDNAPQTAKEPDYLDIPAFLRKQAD

[2] = target: the molecule itself; assay: self-association, polymerization assay, ultracentrifugation and western blot

| Protein | FtsZ polymer proteolysis assay (ultracentrifugation, western blot) [1] | further results |
| --- | --- | --- |
| E. coli K12 Lop1-H6 (protein) MQSVTPTSQYLKALNEGSHQPDDVQKEAVSRLEIIYQELINSTPPAPRTSGLMARVGKLWGKREDTKHTPVRGLYMWGGVGRGKTWLMDLFYQSLPGERKQRLHFHRFMLRVHEELTALQGQTDPLEIIADRFKAETDVLCFDEFFVSDITDAMLLGGLMKALFARGITLVATSNIPPDELYRNGLQRARFLPAIDAIKQHCDVMNVDAGVDYRLRTLTQAHLWLSPLHDETRAQMDKLWLALAGGKRENSPTLEINHRPLATMGVENQTLAVSFTTLCVDARSQHDYIALSRLFHTVMLFDVPVMTRLMESEARRFIALVDEFYERHVKLVVSAEVPLYEIYQGDRLKFEFQRCLSRLQEMQSEEYLKREHLAG | The FtsZ polymers incubation with Lop1 lead to their slight degradation at t=3 min in an ATP-dependent manner | – |
| E. coli K12 Lop1K84A-H6 (protein) MQSVTPTSQYLKALNEGSHQPDDVQKEAVSRLEIIYQELINSTPPAPRTSGLMARVGKLWGKREDTKHTPVRGLYMWGGVGRGATWLMDLFYQSLPGERKQRLHFHRFMLRVHEELTALQGQTDPLEIIADRFKAETDVLCFDEFFVSDITDAMLLGGLMKALFARGITLVATSNIPPDELYRNGLQRARFLPAIDAIKQHCDVMNVDAGVDYRLRTLTQAHLWLSPLHDETRAQMDKLWLALAGGKRENSPTLEINHRPLATMGVENQTLAVSFTTLCVDARSQHDYIALSRLFHTVMLFDVPVMTRLMESEARRFIALVDEFYERHVKLVVSAEVPLYEIYQGDRLKFEFQRCLSRLQEMQSEEYLKREHLAG | no degradation of FtsZ polymers was observed with LOp1 K84A | – |
| FtsZ (purified, from pET11a-ftsZ) (other, Used as GTP-induced polymers in the proteolysis assays; also called FtsZ polymers; Z-ring) MFEPMELTNDAVIKVIGVGGGGGNAVEHMVRERIEGVEFFAVNTDAQALRKTAVGQTIQIGSGITKGLGAGANPEVGRNAADEDRDALRAALEGADMVFIAAGMGGGTGTGAAPVVAEVAKDLGILTVAVVTKPFNFEGKKRMAFAEQGITELSKHVDSLITIPNDKLLKVLGRGISLLDAFGAANDVLKGAVQGIAELITRPGLMNVDFADVRTVMSEMGYAMMGSGVASGEDRAEEAAEMAISSPLLEDIDLSGARGVLVNITAGFDLRLDEFETVGNTIRAFASDNATVVIGTSLDPDMNDELRVTVVATGIGMDKRPEITLVTNKQVQQPVMDRYQQHGMAPLTQEQKPVAKVVNDNAPQTAKEPDYLDIPAFLRKQAD | – | binding result [2]: binds |
| E. coli K12 Lop1Δ1-59-H6 (protein) WGKREDTKHTPVRGLYMWGGVGRGKTWLMDLFYQSLPGERKQRLHFHRFMLRVHEELTALQGQTDPLEIIADRFKAETDVLCFDEFFVSDITDAMLLGGLMKALFARGITLVATSNIPPDELYRNGLQRARFLPAIDAIKQHCDVMNVDAGVDYRLRTLTQAHLWLSPLHDETRAQMDKLWLALAGGKRENSPTLEINHRPLATMGVENQTLAVSFTTLCVDARSQHDYIALSRLFHTVMLFDVPVMTRLMESEARRFIALVDEFYERHVKLVVSAEVPLYEIYQGDRLKFEFQRCLSRLQEMQSEEYLKREHLAG | incubation of FtsZ polymers with Lop1Δ1-59 in the absence of ATP caused its significant degradation (t=1 min, no FtsZ signal in the soluble fraction) | – |
| K12 H6-Lop1Δ1-59Δ303-375 (protein) WGKREDTKHTPVRGLYMWGGVGRGKTWLMDLFYQSLPGERKQRLHFHRFMLRVHEELTALQGQTDPLEIIADRFKAETDVLCFDEFFVSDITDAMLLGGLMKALFARGITLVATSNIPPDELYRNGLQRARFLPAIDAIKQHCDVMNVDAGVDYRLRTLTQAHLWLSPLHDETRAQMDKLWLALAGGKRENSPTLEINHRPLATMGVENQTLAVSFTTLCVDARSQHDYIALSRLFHTVMLFD | – | FtsZ polymer proteolysis assay (1 min at 30° C., western blot of the pellet) [1]: the 73aa C-terminal fragment of Lop1Δ1-59 was required for the proteolytic degradation of FtsZ polymers |
